Assay results reported in PMC5261807 (2017).
Non-standard residues stand in square brackets, D forms with d. No end group written: not given here. Arg(Me2a) = CN(C)C(=N)NCCC[C@H](N)C(=O)O; Lys(Me3) = C[N+](C)(C)CCCC[C@H](N)C(=O)O; Arg(Me2s) = CN=C(NC)NCCC[C@H](N)C(=O)O; pT = C[C@@H](OP(=O)(O)O)[C@H](N)C(=O)O; Me2a = asymmetric dimethyl (on Arg); Lys(Me2) = CN(C)CCCC[C@H](N)C(=O)O; Me2s = symmetric dimethyl (on Arg); pS = N[C@@H](COP(=O)(O)O)C(=O)O; Lys(Me) = CNCCCC[C@H](N)C(=O)O; Me3 = trimethyl (on Lys)

Assays:
[1] = target: T1, Bdf1 bromodomain 1 (GST-tagged, WT) (Saccharomyces cerevisiae (strain ATCC …, UniProt P35817)); assay: histone peptide array probed with recombinant GST-bromodomain, signal normalised to myc peptide control
T1 chain: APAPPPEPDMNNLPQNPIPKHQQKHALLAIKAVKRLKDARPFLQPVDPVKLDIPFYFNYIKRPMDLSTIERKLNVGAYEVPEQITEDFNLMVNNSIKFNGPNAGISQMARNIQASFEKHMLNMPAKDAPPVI

[2] = target: T2, Bdf1 bromodomain 2 (GST-tagged, WT) (Saccharomyces cerevisiae (strain ATCC …, UniProt P35817)); assay: as above
T2 chain: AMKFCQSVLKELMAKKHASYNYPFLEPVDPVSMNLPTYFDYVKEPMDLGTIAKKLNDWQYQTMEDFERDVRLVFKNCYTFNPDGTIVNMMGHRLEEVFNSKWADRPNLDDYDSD

In the case of KKKKKRRRRRXKKKKRK (K Kme1 Kme2 Kme3 Kac R Rme2s R Rme2a R Cit K Kme1 Kac Kme3 R K) [background 01], the binding score [1] is reported as 0 and the binding score [2] is reported as 0.

Binder PRKQLATKAA[Arg(Me2a)][Lys(Me2)][pS]APATGG has a binding score [1] of 0 and a binding score [2] of 0.

Work on RKSAPATGGVKKPHRYRPG (R K S A P A T G G V Kac K P H R Y R P G) [H3 26-45] yielded a binding score [1] of 0.0463 and a binding score [2] of 0.0292.

Binder ARTKQTARKSTGGKAPRKQ (A Rme2s T Kme2 Q T A Rme2s Kac S T G G K A P R K Q) has a binding score [1] of 0.0179 and a binding score [2] of 0.0314.

For A[Arg(Me2s)]TK(Ac)QTA[Arg(Me2a)][Lys(Me2)]STGGKAPRKQ, the binding score [1] was 0.00197 and the binding score [2] was 0.00698.

In the case of ARTKQTARKSTGGKAPRKQ (A Rme2a T Kme3 Q T A Rme2a Kac S T G G K A P R K Q), the binding score [1] is reported as 0.0145 and the binding score [2] is reported as 0.

ARTKQTARKSTGGKAPRKQ (A Rme2s T Kme3 Q T A Rme2s Kme2 S T G G K A P R K Q) showed a binding score [1] of 0.000538 and a binding score [2] of 0.

SGRGKGGKGLGKGGAKRHR (pS G Rme2s G K G G K G L G K G G A K R H R) gave a binding score [1] of 0 and a binding score [2] of 0.

For ARTKQTARKSTGGKAPRKQ (A R T K Q T A R K S pT G G K A P R K Q), the binding score [1] was 0 and the binding score [2] was 0.

For A[Arg(Me2a)]T[Lys(Me3)]QTA[Arg(Me2a)][Lys(Me3)]STGGKAPRKQ, the binding score [1] was 0 and the binding score [2] was 0.00384.

In the case of PRKQLATKAAR[Lys(Me2)]SAPATGG, the binding score [1] is reported as 0.01 and the binding score [2] is reported as 0.

AR(Me2a)TK(Me)QTAR(Me2s)K(Me)STGGKAPRKQ showed a binding score [1] of 0.0102 and a binding score [2] of 0.00187.

With PRKQLATKAA[Arg(Me2a)][Lys(Me)][pS]APATGG the binding score [1] was 0 and the binding score [2] was 0.

In the case of ARTK(Me3)QTAR(Me2s)K(Me)STGGKAPRKQ, the binding score [1] is reported as 0 and the binding score [2] is reported as 0.

ARTKQTARKSTGGKAPRKQ (A Rme2a T Kme2 Q T A Rme2s Kme2 S T G G K A P R K Q) was tested, and the binding score [1] was 0 and the binding score [2] was 0.

Binder ARTKQTARKSTGGKAPRKQ (A Rme2a T Kme1 Q T A Rme2s Kac S T G G K A P R K Q) has a binding score [1] of 0.00717 and a binding score [2] of 0.0204.

ARTKQTARKSTGGKAPRKQ (A R T K Q T A R Kme1 S T G G K A P R K Q) was tested, and the binding score [1] was 0 and the binding score [2] was 0.00482.

Binder ART[Lys(Me)]QTA[Arg(Me2s)][Lys(Me)]STGGKAPRKQ has a binding score [1] of 0.0199 and a binding score [2] of 0.

Work on ARTKQTARKSTGGKAPRKQ (A Rme2a pT Kme3 Q T A R K S T G G K A P R K Q) yielded a binding score [1] of 0.00789 and a binding score [2] of 0.000885.

In the case of SGRGKGGKGLGKGGAKRHR (S G R G Kac G G Kac G L G K G G A K R H R), the binding score [1] is reported as 0.146 and the binding score [2] is reported as 0.33.

PRKQLATKAAR[Lys(Me2)][pS]APATGG showed a binding score [1] of 0 and a binding score [2] of 0.

In the case of A[Arg(Me2s)][pT][Lys(Me)]QTARKSTGGKAPRKQ, the binding score [1] is reported as 0.00323 and the binding score [2] is reported as 0.00344.

Work on A[Arg(Me2s)]TKQTARKSTGGKAPRKQ yielded a binding score [1] of 0.0111 and a binding score [2] of 0.

ARTKQTARKSTGGKAPRKQ (A Rme2a T Kme3 Q T A Rme2s Kac S T G G K A P R K Q) gave a binding score [1] of 0.0181 and a binding score [2] of 0.0261.

Binder A[Arg(Me2a)]TK(Ac)QTA[Arg(Me2a)][Lys(Me)]STGGKAPRKQ has a binding score [1] of 0.00897 and a binding score [2] of 0.

For SGRGKGGKGLGKGGAKRHR (pS G Rme2s G Kac G G K G L G K G G A K R H R), the binding score [1] was 0.00968 and the binding score [2] was 0.107.

ARTKQTARKSTGGKAPRKQ (A R T K Q T A Rme2s Kac pS T G G K A P R K Q) gave a binding score [1] of 0.00484 and a binding score [2] of 0.00403.

Binder ARTKQTA[Arg(Me2s)]K(Ac)S[pT]GGKAPRKQ has a binding score [1] of 0.0118 and a binding score [2] of 0.00679.

ARTKQTARKSTGGKAPRKQ (A Rme2s T Kme1 Q T A Rme2a Kme2 S T G G K A P R K Q) gave a binding score [1] of 0.00502 and a binding score [2] of 0.

Work on SGRGK(Ac)QGGKARAKAKSRSS yielded a binding score [1] of 0 and a binding score [2] of 0.0459.

Binder PRKQLATKAA[Arg(Me2s)]K(Ac)[pS]APATGG has a binding score [1] of 0.0061 and a binding score [2] of 0.

In the case of SGRGKGGKGLGKGGAKRHR (pS G Rme2a G K G G K G L G K G G A K R H R), the binding score [1] is reported as 0 and the binding score [2] is reported as 0.

Work on A[Arg(Me2s)]TK(Ac)QTA[Arg(Me2a)][Lys(Me3)]STGGKAPRKQ yielded a binding score [1] of 0.0145 and a binding score [2] of 0.00836.

PRKQLATKAA[Arg(Me2s)][Lys(Me)]SAPATGG was tested, and the binding score [1] was 0 and the binding score [2] was 0.

Binder [pS]GRGKQGGK(Ac)ARAKAKSRSS has a binding score [1] of 0 and a binding score [2] of 0.00817.

With ARTKQTARKSTGGKAPRKQ (A Rme2s T Kme3 Q T A Rme2a Kme3 S T G G K A P R K Q) the binding score [1] was 0.00681 and the binding score [2] was 0.00108.

SGRGKGGKGLGKGGAKRHR (pS G Rme2a G Kac G G K G L G K G G A K R H R) gave a binding score [1] of 0.00753 and a binding score [2] of 0.0674.

Binder ARTKQTARKSTGGKAPRKQ (A R T Kme3 Q T A Rme2a Kac S T G G K A P R K Q) has a binding score [1] of 0.0142 and a binding score [2] of 0.0127.

With SGRGKGGKGLGKGGAKRHR (S G Rme2s G Kac G G K G L G K G G A K R H R) the binding score [1] was 0 and the binding score [2] was 0.0652.
